Data as given in US12162911B2, “Pulmonary administration of pyocins for treating bacterial respiratory infections” (priority 2014, dated 2024).

Experiments:
P. aeruginosa P8 = experiment: Mouse model of acute lung infection, P. aeruginosa P8; type: in vivo, Pseudomonas aeruginosa; conditions: for Lowest active concentration tested: lowest concentration tested with which the treated mice survived to 24 h; for Corresponding molarity: molarity of lowest active concentration tested
Procedure: Study design. […] For all experiments 6 week-old, female, murine pathogen free C57/BL6 mice weighing 15-21 g were used (Charles Rivers Laboratories, UK). All mice received food and water ad libitum and were housed in groups during the experiments. Power calculations were used to predetermine sample size (n=6, for all treatment experiments). Mice were culled when required as determined by a scoring system or culled at the pre-determined 24 h time point. All mice, including outliers were included in the statistical analysis. Experiments were either carried out once only or repeated once (defined for each experiment).
(§1) Model of acute lung infection. Female C57/BL6 mice were inoculated intranasally with 25 μl of bacterial culture containing approximately 10^7 CFU of the selected P. aeruginosa strain^36. Antibiotic treatments were administered at either 6 h pre-infection or 1 h post-infection and were administered only once. Pyocins or tobramycin dissolved in PBS were administered via intranasal administration as described above. Two different end-points were used in these experiments. In order to determine a reduction in the bacterial load of the lungs compared to the untreated controls, all mice in the experiment were culled by carbon dioxide asphyxiation at the same time; 4-6 h post infection. To determine if mice could survive infection after pyocin or tobramycin treatment, mice were monitored closely, culled by carbon dioxide asphyxiation when required as determined by a scoring system or culled at the pre-determined 24 h time point. Uninfected mice, treated with pyocins, were used as controls in the first series of experiments in order to ensure no adverse effects from pyocin treatment. These controls were stopped in later experiments in order to reduce the number of animals used, once it was clear that the pyocins were not harmful. For CFU determination, lungs were removed aseptically and kept on ice in 750 μl of PBS until homogenised. Serial 10-fold dilutions of the homogenised lung were plated on Pseudomonas selective agar (20 g peptone, 1.5 g K2HPO4, 1.5 g MgSO4·7H2O, 10 ml glycerol, 15 g agar, 0.025 g Irgasan per litre) and incubated at 37° C. for 24 h and then room temperature for 24 h before the colonies were counted.

P. aeruginosa PA01 = experiment: Mouse model of acute lung infection, P. aeruginosa PA01; type: in vivo, Pseudomonas aeruginosa
Procedure: as §1, with “Uninfected mice, treated with pyocins, were used as controls in the first series of experiments in order to ensure no adverse effects from pyocin treatment. These controls were stopped in later experiments in order to reduce the number of animals used, once it was clear that the pyocins were not harmful. For CFU determination, lungs were removed aseptically and kept on ice in 750 μl of PBS until homogenised.” left out
A similar experiment was performed using pyocin SD2. […] The bacterial load of the lungs was determined and control mice had approx 2×10^5 CFU/lung, 6 h after infection.

[1] = tested on: P. aeruginosa P5 (mucoid); experiment: Mouse model of acute lung infection, P. aeruginosa P5; type: in vivo, Pseudomonas aeruginosa
Procedure: as §1
(§2) Since strains of P. aeruginosa are phenotypically diverse, we tested the efficacy of the pyocins against three additional isolates: P. aeruginosa P17 and P. aeruginosa P5 (mucoid), both from cystic fibrosis patients and P. aeruginosa E2, an environmental isolate. Pyocin S2 was not active against P. aeruginosa P5 or P. aeruginosa E2 in vitro therefore was not used to treat these strains in vivo and similarly pyocin L1 was not used against P. aeruginosa P17. […] Lung homogenates from P. aeruginosa E2-infected AP41-treated mice contained high levels of viable bacteria, reduced only 10-fold relative to control mice (Table 1). […] Thus, pyocins show strong efficacy against diverse strains of P. aeruginosa with pyocin S5 treatment displaying the largest effect on reducing bacterial load.

P. aeruginosa E2 = experiment: Mouse model of acute lung infection, P. aeruginosa E2; type: in vivo, Pseudomonas aeruginosa
Procedure: as §1, §2

P8AP41T [2] = experiment: Mouse model of acute lung infection, AP41 tolerant strain P8AP41T; type: in vivo, Pseudomonas aeruginosa; conditions: 3 mg ml^−1 1 h post-infection
Procedure: as §1
(§3) In order to determine if pyocin tolerance or resistance was acquired upon pyocin treatment in vivo, viable bacteria recovered from mice that survived infection to the 24 h end-point, in all experiments discussed in this work, were tested for pyocin susceptibility. From these experiments no pyocin resistant colonies were isolated. […] Importantly, sensitivity to pyocins S5 and L1 were unaffected in vitro in this pyocin AP41-tolerant strain (FIG. 3a) and this was also shown to be the case in vivo when mice were infected with P8AP41T.

P8AP41T [3] = experiment: Pyocin sensitivity in vitro (spot tests) of strain P8AP41T; type: cell-based, Pseudomonas aeruginosa; conditions: spot tests, FIG. 3a
Procedure: Pyocin sensitivity assays: overlay spot plate method. Soft agar overlay spot plates were performed using the method of ^35. 150 μl of test strain culture at OD600 nm=0.6 was added to 6 ml of 0.8% soft agar and poured over an LB agar plate. 5 μl of bacteriocin, lung homogenate or blood at varying concentrations was spotted onto the plates and incubated for 24 h at 37° C.
as §3

Molecule	survival (P. aeruginosa P8; 300 μg ml^−1, 1 h post-infection (FIG. 2b))	bacterial counts compared to the PBS controls (P. aeruginosa P8; 300 μg ml^−1, 24 h post-infection (FIG. 2b))	Lowest active concentration tested (P. aeruginosa P8) [µg/mL]	Corresponding molarity (P. aeruginosa P8) [µM]	bacterial load of the lungs (P. aeruginosa PA01; 3 mg ml^−1 1 h post-infection, 24 h post-infection, control approx 2×10^5 CFU/lung at 6 h)	survival (P. aeruginosa PA01; C57/BL6 mice, 3 mg ml^−1 intranasal 1 h post-infection, endpoint 24 h (FIG. 7))	mice culled at 6 h post-infection due to the severity of symptoms (P. aeruginosa P8; 30 μg ml^−1, six mice)	survival (P. aeruginosa P8; 300 μg ml^−1, endpoint 24 h post-infection)	reduction of bacterial load in lung (P. aeruginosa P8; 3 mg ml^−1 intranasal 1 h post-infection, culled 4.5 h post-infection (FIG. 1c))	reduction of bacterial numbers in lung (P. aeruginosa P8; C57/BL6 mice, 3 mg ml^−1 intranasal 6 h pre-infection, culled 4 h post-infection (FIG. 1a)) [fold]	survival / protection ([1]; pyocin 3 mg ml^−1, endpoint 24 h, infected controls culled at 4.5 h)	bacterial count in lung, P5 ([1]; pyocin 3 mg ml^−1, treated mice survived to 24 h, no treatment 1.7 × 10^5 CFU/lung) [CFU/lung]	survival / protection (P. aeruginosa E2; pyocin 3 mg ml^−1, endpoint 24 h, infected controls culled at 5.5 h)	bacterial count in lung, E2 (P. aeruginosa E2; pyocin 3 mg ml^−1, treated mice survived to 24 h, no treatment 1.5 × 10^5 CFU/lung)	bacterial numbers in lung homogenates (P8AP41T [2]; 24 h (FIG. 3b))	survival (P8AP41T [2]; endpoint 24 h, PBS controls culled 6 h post-infection (FIG. 3b))	sensitivity of the pyocin AP41-tolerant strain in vitro (P8AP41T [3])
NC[C@H]1O[C@H](O[C@H]2[C@H](O)[C@@H](O[C@H]3O[C@H](CO)[C@@H](O)[C@H](N)[C@H]3O)[C@H](N)C[C@@H]2N)[C@H](N)C[C@@H]1O [Tobramycin, tobramycin, reference compound]	survived to 24 h	significantly reduced the bacterial counts	300	641													
Pyocin SD2: S-type pyocin, SEQ ID NO: 7; targeting domain binds LPS common polysaccharide antigen (protein, listed as Pseudomonas aeruginosa) MAVNDYEPGSMVITHVQGGGRDIIQYIPARSSYGTPPFVPPGPSPYVGTGMQEYRKLRSTLDKSHSELKKNLKNETLKEVDELKSEAGLPGKAVSANDIRDEKSIVDALMDAKAKSLKAIEDRPANLYTASDFPQKSESMYQSQLLASRKFYGEFLDRHMSELAKAYSADIYKAQIAILKQTSQELENKARSLEAEAQRAAAEVEADYKARKANVEKKVQSELDQAGNALPQLTNPTPEQWLERATQLVTQAIANKKKLQTANNALIAKAPNALEKQKATYNADLLVDEIASLQARLDKLNAETARRKEIARQAAIRAANTYAMPANGSVVATAAGRGLIQVAQGAASLAQAISDAIAVLGRVLASAPSVMAVGFASLTYSSRTAEQWQDQTPDSVRYALGMDANKLGLTSSVNLSAVAKAGGTVDLPMRLTNEARGNTTTLSVVSTDGVSVPKAAPVRMAAYNATTGLYEVTVPSTTAEAPPLILTWTPASPPGNQNPSSTTPVIPKPVPVYEGAALTPLKTGPESYPGMLLDLNDLIVIFPADSGVKPVYVMLSSPLDSGIFTRRQLQKKFDSHKYDFGLGEKSANNGTLAEFRDKILEHLADPATVEKGTYHSEVNSKVHYNARTNIVVIIGEDGMFVSGWRIEPGTDQYNFYMKNEVL					no colonies or 10	survived to the endpoint of the experiment at 24 h											
Pyocin L1: lectin-like pyocin, SEQ ID NO: 24; receptor believed to be common polysaccharide antigen of LPS (protein, listed as Pseudomonas aeruginosa) MASSLAPRQVIRDGQFITSPNGKYKLVMQADGNLVLYEDGTKPIWNTTPVGPGAKAVMEFNLNLYNKAGQVAWSSNVYTAYLFEEFKDEAYLNLQDDGDFGIFSDEAKWGSIVLSRPEVGVKNKIIPTGTVMVPGTEYINGNYRLAFQGDGNLVIYQINPQVVIWATYTMGADRAVVQEDGNFVIYKGTTALWHTHTATGMPAYLKFTNTGKLFLSQPTLLWTLKRGSLSKPPKVIPGQHGPLDTTPIWSWPHDYP			30	1.06			three of the six	survived until the endpoint of the experiment at 24 h post-infection	approximately 20 fold	~1500	survived until the 24 h endpoint	40	survived until the 24 h endpoint	No colonies	significantly reduced bacterial numbers	survived until the endpoint of the experiment at 24 h	unaffected
